These results are taken from the supplement of paper PMC7877785.

± gives the uncertainty stated by the source.

This data set is described as follows: self-splicing fitness, log relative to wild type (ln ratio); higher = more splicing; Tetrahymena group I intron in knt gene, E. coli kanamycin selection, DiMSum; sequences stand for … in CUCUCU…GGAGGGAAAAGUUAUCAGGCAUGCACCUGGUAGCUAGUCUUUAAACCAAUAGAUUGCAUCGGUUUAAAAGGCAAGACCGUCAAAUUGCGGGAAAGGGGUCAACAGCCGUUCAGUACCAAGUCUCAGGGGAAACUUUGAGAUGGCCUUGCAAAGGGUAUGGUAAUAAGCUGACGGACAUGGUCCUAACCACGCAGCCAAGUCCUAAGUCAACAGAUCUUCUGUUGAUAUGGAUGCAGUUCACAGACUAAAUGUCGGUCGGGGAAGAUGUAUUCUUCUCAUAAGAUAUAGUCGGACCUCUCCUUAAUGGGAGCUAGCGGAUGAAGUGAUGCAACACUGGAGCCGCUGGGAACUAAUUUGUAUGCGAAAGUAUAUUGAUUAGUUUUGGAGUACUCGUGGUCG
The procedure, abridged:
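Pooled colonies went to amplicon sequencing on an Illumina HiSeq 2500 after six replicate transformations. The plates were LB agar with 100 μg/mL carbenicillin, 50 μM IPTG and 0.2% rhamnose, with or without 25 μg/mL kanamycin, incubated overnight at 37°C or 30°C. The E. coli BL21(DE3) library had all eight P1ex-region intron nucleotides randomised, the intron placed in the knt kanamycin-resistance gene on pET-22b(+). DiMSum fitness is the error-weighted combination of replicate fold changes, kanamycin against none, normalised to wild type.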

For the sequence UGCUAGCAAUAUUACGACCU, the “self-splicing fitness (ln)” value reads like this: (30 °C) -0.548 ± 0.088; (37 °C) -0.345 ± 0.1.

As for GUGCAGCAAUAUUACGUGAC, the “self-splicing fitness (ln)” value runs as follows: (30 °C) -1.86 ± 0.14; (37 °C) -1.33 ± 0.14.

Take CCUAAGCAAUAUUACGCAAA: the “self-splicing fitness (ln)” value (30 °C) is -3.38 ± 0.36 and the “self-splicing fitness (ln)” value (37 °C) was -1.76 ± 0.3.

Take CCCUAGCAAUAUUACGUAAA: the “self-splicing fitness (ln)” value (37 °C) is -2.22 ± 0.32.

As for GGCCAGCAAUAUUACGUCCG, the “self-splicing fitness (ln)” value by setting is: (30 °C) -3.34 ± 0.21; (37 °C) -0.963 ± 0.14.

Take GCCCAGCAAUAUUACGACCU: the “self-splicing fitness (ln)” value is, setting by setting: (30 °C) -1.07 ± 0.12; (37 °C) -0.407 ± 0.15.

Regarding UGUCAGCAAUAUUACGCUCC, the “self-splicing fitness (ln)” value is, setting by setting: (30 °C) -0.598 ± 0.29; (37 °C) -1.2 ± 0.34.

On to GUCUAGCAAUAUUACGUUCC, for which the “self-splicing fitness (ln)” value reads like this: (30 °C) -1.14 ± 0.16; (37 °C) -0.649 ± 0.2.

Turning to AACCAGCAAUAUUACGCGGU, the “self-splicing fitness (ln)” value by setting is: (30 °C) -4.38 ± 0.19; (37 °C) -2.43 ± 0.15.

Turning to CCUCAGCAAUAUUACGUCCU, the “self-splicing fitness (ln)” value is -4.39 ± 0.31 (30 °C) and -2.68 ± 0.3 (37 °C).

On to CCUUAGCAAUAUUACGGACC, for which, where the note is “30 °C”, the “self-splicing fitness (ln)” value was -2.33 ± 0.3.

CAGUAGCAAUAUUACGGCUC: the “self-splicing fitness (ln)” value by setting is: (30 °C) -1.36 ± 0.14; (37 °C) 0.325 ± 0.16.

Regarding AGCGAGCAAUAUUACGGCGG, the “self-splicing fitness (ln)” value was -1.1 ± 0.19 (30 °C) and -1.8 ± 0.24 (37 °C).

For UCGCAGCAAUAUUACGACCG, the “self-splicing fitness (ln)” value runs as follows: (30 °C) -0.544 ± 0.11; (37 °C) -0.235 ± 0.15.

CCAGAGCAAUAUUACGUCCU: the “self-splicing fitness (ln)” value runs as follows: (30 °C) -4.05 ± 0.22; (37 °C) -2.48 ± 0.25.

On to AAAAAGCAAUAUUACGCGUA, for which the “self-splicing fitness (ln)” value (30 °C) was -1.61 ± 0.083 and the “self-splicing fitness (ln)” value (37 °C) is -0.153 ± 0.08.

As to AGACAGCAAUAUUACGUUUA, the “self-splicing fitness (ln)” value (30 °C) was -2.45 ± 0.094 and the “self-splicing fitness (ln)” value (37 °C) was -0.782 ± 0.083.

Turning to CCUAAGCAAUAUUACGACAU, the “self-splicing fitness (ln)” value is, setting by setting: (30 °C) -3.909 ± 0.025; (37 °C) -2.82 ± 0.038.

For GUCCAGCAAUAUUACGGCCU, the “self-splicing fitness (ln)” value reads like this: (30 °C) -3.36 ± 0.2; (37 °C) -1.14 ± 0.13.

Take GCAUAGCAAUAUUACGGUAA: the “self-splicing fitness (ln)” value is -2.31 ± 0.16 (30 °C) and -0.658 ± 0.15 (37 °C).

As for GCAGAGCAAUAUUACGGUUA, the “self-splicing fitness (ln)” value was -2.95 ± 0.17 (30 °C) and -2.17 ± 0.16 (37 °C).

For ACGUAGCAAUAUUACGUGAA, the “self-splicing fitness (ln)” value is, setting by setting: (30 °C) -3.92 ± 0.23; (37 °C) -1.82 ± 0.17.

Regarding AAUCAGCAAUAUUACGAAUU, the “self-splicing fitness (ln)” value is, setting by setting: (30 °C) -0.152 ± 0.1; (37 °C) 0.193 ± 0.13.

Consider CUAUAGCAAUAUUACGCUGU, for which the “self-splicing fitness (ln)” value reads like this: (30 °C) -3.72 ± 0.26; (37 °C) -1.29 ± 0.22.

Consider CCCCAGCAAUAUUACGUGAG, for which the “self-splicing fitness (ln)” value is, setting by setting: (30 °C) -1.84 ± 0.07; (37 °C) -1.33 ± 0.084.

For CCCCAGCAAUAUUACGACUG, the “self-splicing fitness (ln)” value (30 °C) was -3.32 ± 0.11 and the “self-splicing fitness (ln)” value (37 °C) is -2.97 ± 0.17.

With GGCCAGCAAUAUUACGACAG, the “self-splicing fitness (ln)” value (30 °C) is -4.12 ± 0.25 and the “self-splicing fitness (ln)” value (37 °C) was -3.08 ± 0.35.

As for AUCGAGCAAUAUUACGCGUU, the “self-splicing fitness (ln)” value is, setting by setting: (30 °C) -2.01 ± 0.17; (37 °C) -1.1 ± 0.17.

For the sequence GGUCAGCAAUAUUACGCUAC, the “self-splicing fitness (ln)” value (30 °C) is -3.55 ± 0.28 and the “self-splicing fitness (ln)” value (37 °C) was -2.17 ± 0.16.

As to AUAAAGCAAUAUUACGGUUC, the “self-splicing fitness (ln)” value (30 °C) was -2.17 ± 0.088 and the “self-splicing fitness (ln)” value (37 °C) is -0.743 ± 0.1.

Regarding UGCAAGCAAUAUUACGACAC, the “self-splicing fitness (ln)” value is -2.23 ± 0.24 (30 °C) and -1.35 ± 0.21 (37 °C).

In the case of GUACAGCAAUAUUACGGGAC, the “self-splicing fitness (ln)” value runs as follows: (30 °C) -1.7 ± 0.12; (37 °C) -1.22 ± 0.14.

For UCAAAGCAAUAUUACGUCGA, the “self-splicing fitness (ln)” value was -0.83 ± 0.077 (30 °C) and -0.792 ± 0.081 (37 °C).

On to UUUGAGCAAUAUUACGAAGA, for which the “self-splicing fitness (ln)” value (30 °C) was -2.31 ± 0.44 and the “self-splicing fitness (ln)” value (37 °C) is -1.55 ± 0.38.

Regarding CCAAAGCAAUAUUACGACCA, the “self-splicing fitness (ln)” value was -3.08 ± 0.34 (30 °C) and -1.78 ± 0.45 (37 °C).

Regarding AGCUAGCAAUAUUACGAGGC, the “self-splicing fitness (ln)” value is, setting by setting: (30 °C) -3.21 ± 0.24; (37 °C) -1.96 ± 0.21.

In the case of AUCCAGCAAUAUUACGCUCU, the “self-splicing fitness (ln)” value by setting is: (30 °C) 0.335 ± 0.14; (37 °C) 0.709 ± 0.15.

Turning to GGCAAGCAAUAUUACGUCGC, the “self-splicing fitness (ln)” value (30 °C) is -2.66 ± 0.14 and the “self-splicing fitness (ln)” value (37 °C) was -1.38 ± 0.13.
